From paper PMC9065009, “Mechanistic insights of ABC importer HutCD involved in heme internalization by Vibrio cholerae” (Scientific Reports, 2022)

Experiments:
[1] = biological target: HutD; test: SEC; Superdex 200 Increase 10/300 GL; 250 uM HutD preincubated 1.5 h at 4 °C with 500 uM AMP.PNP; 500 ul injected; 50 mM Tris-HCl pH 8.0, 300 mM NaCl, 5 mM MgCl2; 0.5 ml/min; calibrated with molecular weight standards
[2] = biological target: HutD; test: cross-linking
[3] = biological target: T1, HutD (Vibrio cholerae, UniProt Q9KL34); test: biochemical
T1 construct: gene hmuV
T1 sequence (Q9KL34 whole entry, looked up): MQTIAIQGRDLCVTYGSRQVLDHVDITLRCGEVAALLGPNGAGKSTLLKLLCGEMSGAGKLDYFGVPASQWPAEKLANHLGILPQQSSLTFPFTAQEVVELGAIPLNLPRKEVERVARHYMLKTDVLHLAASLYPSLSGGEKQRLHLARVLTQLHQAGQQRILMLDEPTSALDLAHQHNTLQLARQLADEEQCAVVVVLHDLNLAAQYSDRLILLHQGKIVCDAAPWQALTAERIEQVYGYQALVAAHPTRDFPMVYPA

Sequence of HutD (enzyme) (O52047 whole entry): as the sequence (Q9KL34 whole entry, looked up) above

| Molecule | stoichiometry N [1] | stoichiometry N [2] | Kd [3] |
| --- | --- | --- | --- |
| HutD (enzyme) | 2 | 2 |  |
| Nc1ncnc2c1ncn2[C@@H]1O[C@H](COP(=O)(O)OP(=O)(O)NP(=O)(O)O)[C@@H](O)[C@H]1O [AMP.PNP] |  |  | 94 ± 0.024 µM |
